Results reported in the supplement of paper PMC10724198.
± gives the standard deviation of the averaged measurements.

What follows are sequences tested on Saccharomyces cerevisiae (assay: protein stability index of tFT-peptide fusion (C-terminal peptide) (PSI (0-1 scale)); higher = more stable (slower turnover)). Conditions: genetic background: wild type; temperature: 30 C.
Protocol: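 MPS profiling in S. cerevisiae of the yeast C-terminome library: the last 12 aa of each annotated ORF are fused to the C-terminus of a sfGFP-mCherry timer, after a GGGS linker. Cells are FACS-sorted into 8 mCherry/sfGFP bins and deep-sequenced. PSI runs from 0 (unstable) to 1 (stable); wild type and das1Δ backgrounds, two technical replicates each.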

Sequence	protein stability index
RIPKELTGTVRF [GAT4 C-terminal 12 aa]	0.672 ± 0.014
RITRLSSMTYTY [YPS5 C-terminal 12 aa]	0.69 ± 0.033
RKQAHELRPKSE [SPO7 C-terminal 12 aa]	0.79 ± 0.019
RKSHERPDDVSV [SUR7 C-terminal 12 aa]	0.69 ± 0.028
RKSTRSDNPHEA [CBF1 C-terminal 12 aa]	0.687 ± 0.017
RLDRHFEKKKKV [RDS3 C-terminal 12 aa]	0.7 ± 0.021
RLEQGSNGFMFA [NAM8 C-terminal 12 aa]	0.699 ± 0.011
RLGASNSSNNDA [SLY1 C-terminal 12 aa]	0.68 ± 0.018
RLRKWLSTFVHQ [YNL034W C-terminal 12 aa]	0.182 ± 0.017
RMYTRHKTSFPL [YAL042C-A C-terminal 12 aa]	0.66427 ± 0.00065
RNSGEKLVAVLK [YNL134C C-terminal 12 aa]	0.6702 ± 0.0052
RNSPSYTGDHKT [YOR072W-A C-terminal 12 aa]	0.6928 ± 0.0067
RNWLGFCTKYEL [ATG15 C-terminal 12 aa]	0.735 ± 0.047
RPDSTAPSNENQ [PEP1 C-terminal 12 aa]	0.7245 ± 0.0041
RPFEIASFRLYF [AMS1 C-terminal 12 aa]	0.683 ± 0.016
RQYAGCKVNVGK [NUS1 C-terminal 12 aa]	0.705 ± 0.051
RRIIESINKSQG [HAT1 C-terminal 12 aa]	0.6752 ± 0.0052
RRLEMEIANLQE [SPC34 C-terminal 12 aa]	0.706 ± 0.028
RRQSLPKRFPLI [YAR035C-A C-terminal 12 aa]	0.697 ± 0.022
RSLLRKSKPLQA [RPM2 C-terminal 12 aa]	0.639 ± 0.018
RSPKKKKNYHKR [NUR1 C-terminal 12 aa]	0.6729 ± 0.006

Sequence	protein stability index
RTGSQSPPSSSQ [MED7 C-terminal 12 aa]	0.673 ± 0.025
RVPQSRSFGNLR [NUM1 C-terminal 12 aa]	0.746 ± 0.038
RVSRMRAKRKYQ [YOR300W C-terminal 12 aa]	0.6764 ± 0.0037
RYAHIGGLHQRT [PRR2 C-terminal 12 aa]	0.686 ± 0.018
RYIRHLQQNVST [PHO4 C-terminal 12 aa]	0.683 ± 0.037
RYIYAYINAQVQ [YHL005C C-terminal 12 aa]	0.452 ± 0.0055
SDDDDYDEVANQ [UBC8 C-terminal 12 aa]	0.664 ± 0.015
SDLNVLLQIKHS [YNL228W C-terminal 12 aa]	0.31 ± 0.015
SEEEEEEEWKGF [RRP1 C-terminal 12 aa]	0.673 ± 0.033
SEKIYRRSLFKQ [YKL165C-A C-terminal 12 aa]	0.686 ± 0.044
SEYRRKQQEKKD [YPI1 C-terminal 12 aa]	0.688 ± 0.023
SFGIGSKVFSSM [YHR063W-A C-terminal 12 aa]	0.695 ± 0.01
SFTKSRIHLEFT [SPC105 C-terminal 12 aa]	0.69832 ± 2.3e-05
SFWPHVAGELEY [INM2 C-terminal 12 aa]	0.693 ± 0.04
SGGVLDSGDVSL [YGR182C C-terminal 12 aa]	0.661 ± 0.029
SHAALGNETNSL [YHR052C-B C-terminal 12 aa]	0.684 ± 0.034
SIIDKELENIDS [SGD1 C-terminal 12 aa]	0.681 ± 0.018
SKGAQKRKNAKK [SHR3 C-terminal 12 aa]	0.66 ± 0.022
SKKDYSIDSVEM [TPO2 C-terminal 12 aa]	0.677 ± 0.014
SKRVYSICHYEF [ABM1 C-terminal 12 aa]	0.695 ± 0.012
SKVNSTRLVSRK [KAR3 C-terminal 12 aa]	0.723 ± 0.014

Sequence	protein stability index
SLEHFIDSVSSL [TRP4 C-terminal 12 aa]	0.672 ± 0.013
SLIDAKTGLPKE [MVD1 C-terminal 12 aa]	0.706 ± 0.042
SLVKTHNSSLCK [IAI11 C-terminal 12 aa]	0.689 ± 0.095
SNYGGNSTWGGH [SPT5 C-terminal 12 aa]	0.673 ± 0.16
SPELHTYETIYD [ROY1 C-terminal 12 aa]	0.7694 ± 0.0053
SPEQLKVSLKWH [SKM1 C-terminal 12 aa]	0.699 ± 0.022
SPGEYEIGDMEN [YDR061W C-terminal 12 aa]	0.681 ± 0.048
SPVPTKKKGFLR [CDC3 C-terminal 12 aa]	0.684 ± 0.012
SQLPSLYAPSYY [SSU72 C-terminal 12 aa]	0.7264 ± 0.0056
SQTKSKQTLFTI [YPR142C C-terminal 12 aa]	0.695 ± 0.038
SQTQAGSAYYTK [YOR268C C-terminal 12 aa]	0.688 ± 0.025
SRGQNTHPSVDK [ESC1 C-terminal 12 aa]	0.692 ± 0.029
SRIYQTFTDPSN [ADY4 C-terminal 12 aa]	0.702 ± 0.061
SRKHTTRSGGRW [HOS3 C-terminal 12 aa]	0.6554 ± 0.00091
SSAHMSSNAIQR [CDC10 C-terminal 12 aa]	0.721 ± 0.016
SSESEAVKKAKS [CIC1 C-terminal 12 aa]	0.685 ± 0.062
SSKKTIQEEIYI [DPB2 C-terminal 12 aa]	0.741 ± 0.056
SSLARPSLFSSE [YBL077W C-terminal 12 aa]	0.714 ± 0.056
SSNEDKKGMCKL [IDP3 C-terminal 12 aa]	0.901 ± 0.037
SSNTVYDNILVT [YDR034C-A C-terminal 12 aa]	0.724 ± 0.028
SSSEQITSSITS [YAR062W C-terminal 12 aa]	0.67 ± 0.008

Sequence	protein stability index
SSTDMNGQPIEF [SKA1 C-terminal 12 aa]	0.67 ± 0.015
SSVRTLDSNIWR [ISC10 C-terminal 12 aa]	0.686 ± 0.024
SSVVSRVSRSCR [YAR060C C-terminal 12 aa]	0.668 ± 0.043
SSWISKHSSVTD [YDL109C C-terminal 12 aa]	0.6859 ± 0.002
STKFLRSFGQTI [SWP1 C-terminal 12 aa]	0.686 ± 0.012
STKTVPLNFLFL [YDL050C C-terminal 12 aa]	0.677 ± 0.032
STMQERFAESTD [VMA1 C-terminal 12 aa]	0.706 ± 0.032
SVENIFMIWFFY [YJL022W C-terminal 12 aa]	0.494 ± 0.011
SVHPLIISYSQL [TRM732 C-terminal 12 aa]	0.637 ± 0.024
SVVSQPPPGYEQ [HSE1 C-terminal 12 aa]	0.667 ± 0.02
SVYQPFFALCGL [YDR355C C-terminal 12 aa]	0.645 ± 0.017
SYRLGKNAAEGK [CAP1 C-terminal 12 aa]	0.663 ± 0.025
TAPLGKALHDLS [REE1 C-terminal 12 aa]	0.72 ± 0.059
TASQILKFEGRI [GRE2 C-terminal 12 aa]	0.695 ± 0.057
TEAMNSEIDGTK [ATG16 C-terminal 12 aa]	0.703 ± 0.042
TFELVMRFLGEE [YMC2 C-terminal 12 aa]	0.669 ± 0.0095
TFQKAQVEAEWV [TOA1 C-terminal 12 aa]	0.692 ± 0.027
TFTLAVTPYPAF [YLL066W-B C-terminal 12 aa]	0.6847 ± 0.0036
TGNGPNLDNLKY [ARA1 C-terminal 12 aa]	0.641 ± 0.019
